In data set [1] the target is DUX4 DNA-binding domain (dbd) (Homo sapiens, UniProt Q6RFH8 SEQ:1-150). In words: EMSA; binding inhibited by recombinant MATR3 1-287. The following applies: tags: 6xHis-GB1 (pET-GB1). The protocol:
(§1) Twenty femtomoles of probes were incubated with 15 pmol of in vitro purified 6xHis DUX4 dbd and/or GST-MATR3 1-287 proteins in the presence of 1 μg of poly(dI:dC) and 5 μg of salmon sperm DNA in a buffer containing 10 mM Tris, pH 7.5, 0.1 mM EDTA, 1 mM DTT, 100 mM KCl, 3 mM MgCl2, 12% glycerol.
(§2) After 2 h incubation at RT, DNA-protein complexes were separated by electrophoresis in 8% (w/v) acrylamide gels formed in 0.5×TBE (Sigma-Aldrich) and run in the same buffer at 5 mA at 4° C. Then, the gels were transferred on a Biodyne nylon membrane (Thermo Scientific) at 380 mA for 45 min at 4° C. The membrane was crosslinked at 120 mJ/cm2 with an UV-Stratalinker and the biotin-labelled DNA was detected by chemiluminescence using the LightShift Chemiluminescent EMSA Kit (Thermo Scientific) following the manufacturer's protocol.

The target in data set [2] is T1, MATR3 fragment 1-287 (Homo sapiens, UniProt P43243 SEQ:1-287).
T1 sequence: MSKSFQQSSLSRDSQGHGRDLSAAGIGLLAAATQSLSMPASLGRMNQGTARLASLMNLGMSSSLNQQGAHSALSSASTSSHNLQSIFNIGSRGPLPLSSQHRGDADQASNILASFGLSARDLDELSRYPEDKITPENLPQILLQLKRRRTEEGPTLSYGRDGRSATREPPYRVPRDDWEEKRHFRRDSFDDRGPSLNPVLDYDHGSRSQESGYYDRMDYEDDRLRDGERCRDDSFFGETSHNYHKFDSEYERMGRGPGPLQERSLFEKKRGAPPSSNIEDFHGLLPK
In words: EMSA; MATR3 1-287 alone unable to bind DNA; lacks nucleic acid binding domains. The following applies: tags: GST (pGEX2tk). The protocol: as §1, §2

Chain of DUX4 DNA-binding domain (dbd) (Q6RFH8 1-150): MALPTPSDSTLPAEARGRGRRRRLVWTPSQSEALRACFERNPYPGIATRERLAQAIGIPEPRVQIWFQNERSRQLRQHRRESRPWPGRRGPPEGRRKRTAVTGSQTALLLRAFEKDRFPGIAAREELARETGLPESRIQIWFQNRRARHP

B1: FRG1 Peak 1 EMSA probe (dsDNA)
DNA 1: AATTGTAGCTATAATTCAATCATCTAAATTG
DNA 2: CAATTTAGATGATTGAATTATAGCTACAATT
For the molecule B1, the binding result in data set [1] is recorded as “binds”; in data set [2], “no binding”.

The values are drawn from patent US20220098252, “INHIBITOR OF DUX4 AND USES THEREOF” (OSPEDALE SAN RAFFAELE S.R.L., published 2022).
